Biological target: T1, MBP-EZH2 (uncleavable MBP fusion, three-alanine linker) (human, UniProt Q15910-2 2-751)
T1 construct: forward primer starts at codon 2 after the three alanines, reverse primer holds the stop codon; A short linker of three alanine residues connects MBP and EZH2; no PreScission site between them; Present as a subunit of the co-purified PRC2 5m complex; also called tagged EZH2; MBP-tagged EZH2; source: Sf9, baculovirus, co-expressed and co-purified with the other PRC2 subunits (amylose resin, …)
T1 sequence (Q15910 other isoform, or with tags, fused parts or gaps): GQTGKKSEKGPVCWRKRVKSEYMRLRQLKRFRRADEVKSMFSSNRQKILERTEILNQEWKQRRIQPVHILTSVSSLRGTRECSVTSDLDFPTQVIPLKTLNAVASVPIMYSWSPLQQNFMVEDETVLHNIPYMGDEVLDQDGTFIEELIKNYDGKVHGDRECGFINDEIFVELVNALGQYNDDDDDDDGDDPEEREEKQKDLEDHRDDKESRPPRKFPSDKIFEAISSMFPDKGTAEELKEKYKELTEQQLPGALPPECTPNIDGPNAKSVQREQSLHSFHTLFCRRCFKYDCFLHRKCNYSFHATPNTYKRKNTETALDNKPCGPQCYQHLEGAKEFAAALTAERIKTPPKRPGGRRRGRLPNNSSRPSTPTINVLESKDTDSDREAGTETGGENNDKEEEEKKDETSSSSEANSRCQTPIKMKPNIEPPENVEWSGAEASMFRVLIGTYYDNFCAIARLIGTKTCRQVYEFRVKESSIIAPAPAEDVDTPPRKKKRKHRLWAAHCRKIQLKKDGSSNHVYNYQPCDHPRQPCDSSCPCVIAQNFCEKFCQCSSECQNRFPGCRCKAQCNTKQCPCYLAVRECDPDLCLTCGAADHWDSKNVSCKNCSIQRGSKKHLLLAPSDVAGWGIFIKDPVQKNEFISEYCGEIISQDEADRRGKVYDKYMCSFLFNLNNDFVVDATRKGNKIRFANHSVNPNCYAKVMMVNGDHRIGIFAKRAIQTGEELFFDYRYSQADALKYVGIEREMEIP
Assay: pull-down; called co-immunoprecipitation by the paper; 0.1 mg purified nucleic acid-free PRC2 5m co-expressed with both MBP-EZH2 (uncleavable) and untagged EZH2, bound to amylose beads 30 min at 4°C in 10 mM Tris-HCl pH 7.5, 250 mM NaCl, 1 mM TCEP, washed twice, eluted with 20 mM maltose; immunoblotting (semi-quantitative for EZH2)
Details: both partners purified

B1: EZH2, untagged (cleavable MBP tag removed) (natural protein)
chain: not shown
notes: forward primer starts at codon 2 (GQTGKKS), reverse primer holds the stop codon; Present as a subunit of the co-purified PRC2 complex, never isolated alone; also called untagged EZH2; source: Sf9, baculovirus, co-expressed and co-purified with the other PRC2 subunits (amylose resin, PreScission cleavage, SEC); not shown: His6, N-terminal, cleaved; MBP, N-terminal, cleaved
For B1, the “ratio of tagged to untagged EZH2 in the MBP pull down” value was ~3 tagged:untagged.

— paper PMC4132707, “A dimeric state for PRC2” (Nucleic Acids Research, 2014)
